The values below come from US4839466A, “Insulin activity messengers” (The Rockefeller University, priority 1987, dated 1989).

One series relates to PI-glycan PLC. The experiment in a line: Effects of cations and sulfhydryl reagents on PI-glycan PLC (mfVSG hydrolysis). Conditions: 25 nM mfVSG, 2 hr at 37° C.; for Activity (dpm/2 hr): no addition 3970. It is filed as biochemical, rat. The protocol:
Assay of PI-glycan PLC Activity. Enzyme activity was assayed at 37° C. in a final volume of 1 ml with [^3 H]myristate-labeled C-terminal glycopeptide in 25 mM Tris, pH 7.4, with 0.1% NP-40. The reaction was terminated after 1 hr. by extraction with 1 ml toluene. Organic and aqueous phases were separated by brief centrifugation at 100 ×g and the organic phase was taken to dryness in vacuo, redissolved in 40 ul of chloroform:methanol (2:1) containing 5 ug dimyristylglycerol, and spotted on a Silica G TLC plate which had been preactivated by baking at 125° C. for 1-2 hr. The plate was developed twice in petroleum ether:diethyl ether:acetic acid (70:30:2) and then stained with iodine vapor to localize DAG. The DAG region was scraped and counted. Alternatively, 0.5 ml of the organic phase was taken directly for liquid scintillation counting.
Samples from each stage of the purification were incubated in 1 ml with 25 nM [3H]mfVSG for 2 hr at 37° C. and then extracted twice with 1 ml chloroform:methanol (200:1). The organic phases were taken to dryness and analyzed by TLC as described under Experimental Procedures. Each assay was performed in duplicate and was consistant within 10%.
Purified PI-glycan PLC was incubated with 25 nM mfVSG in the presence of the indicated reagents for 2 hr at 37° C. Enzyme activity was assayed as described for Table VIII. All assays were performed in duplicate variance was less than 10%.

In a further series the test system is BC3 Hl cells. The experiment in a line: Diacylglycerol and phosphatidic acid production in labeled BC3 Hl myocytes. It is filed as cell-based, murine. The protocol: FIG. 12--Time Course of Diacylglycerol and Phosphatidic Acid Production in Response to Insulin. Myocytes were incubated for 20 hrs. in serum free DMEM with [9,10^3 H]myristic acid (New England Nuclear), complexed 1:1 to bovine serum albumin. Insulin was added to cells in fresh media for the designated intervals, and reactions were stopped by removal of media and addition of 1 ml chloroform/methanol/1N HCl (200:100:1). 0.6ml H2 O was added and upper aqueous phases were discarded following centrifugation at 500×g for 5 minutes. The lower, organic phases were dried under N2 and resuspended in 1 ml diethyl ether followed by addition of 1 […]. The upper ether phase was aspirated and the lower phase reextracted with 1 ml diethyl ether. The combined ether phases, containing diacylglycerol, were dried under N2, resuspended in chloroform and spotted on silica gel G plates which were preactivated at 60° C. for 1 hr. Plates were twice developed in petroleum ether/diethyl ether/glacial acetic acid (70:30:2). Five ug of unlabeled dimyristoylglycerol were added to each sample. Spots were visualized by iodine staining. To the lower aqueous phases from the ether extraction were added 1 ml of chloroform/methanol (2:1). Following centrifugation, the resulting upper aqueous phases were discarded and the lower organic phases dried under N2, resuspended in chloroform/methanol/H2 O (9:7:2) and spotted on "soft plus" silica gel plates. These were developed in chloroform/pyridine/70% formic acid (50:30:7), and phosphatidic acid was identified by an iodine stained standard. Lipids were scraped and radioactivity determined in a liquid scintillation counter.
BC3 Hl cells were cultured on collagen coated multiwell plates or petri dishes in Dulbecco's minimal essential medium (DMEM) supplemented with 20% Nu serum or 10% fetal calf serum. Cells were grown to maximal density and confluence, at which time they become responsive to insulin. Radiolabeled precursors were added for 20 hrs. in serum-free medium. [^3 H]Myristic and arachidonic acids were complexed 1:1 to bovine serum albumin prior to addition.
Following preincubations with the appropriate isotopes, cells were resuspended in DMEM without serum and treated with 10 nM insulin at the designated intervals. Reactions were terminated by the addition of 1 ml chloroform/methanol/1N HCl (200:100:1), followed by 0.5 ml 10 mM formic acid. Following centrifugation at 500 x g for 5 min., the upper phase was discarded. For phospholipid analyses, the lower, organic phase was dried under N2, resuspended in chloroform/methanol/H2 O (9:7:2) and spotted on oxalate impregnated silica gel G plates. These were sequentially developed in chloroform/acetone/methanol/glacial acidic acid/H2 O (10:4:2:2:1) and chloroform/methanol/4N NH4 OH (45:35:10). One cm regions were scraped and eluted with chloroform/methanol (2:1) and counted. Phosphoinositide standards were identified by iodine staining.
For analysis of neutral lipids, the chloroform/methanol organic phases were dried under N2 and resuspended in 1 ml diethyl ether followed by addition of 1 ml 50 mM formic acid. The upper ether phase was aspirated and the lower aqueous phase was reextracted with 1 ml diethyl ether. The pooled ether phases were dried under N2, resuspended in chloroform and spotted on silica gel G plates which were preactiviated at 60° C. for 1 hr. Plates were twice developed in petroleum ether/diethyl ether/glacial acetic acid (70:30:2). Five ug of unlabeled dimyristoyl glycerol, myristic acid and monomyristoyl glycerol were added as carriers to each sample.

Series [1] in a line: PI-PLC treatment of lipids extracted from labeled BC3 Hl cells, TLC. Format: biochemical, murine. Conditions: PI-PLC 30 min. On the procedure: FIG. 8--SAX HPLC of Radiolabeled Mediators Produced by PI-PLC. Cells were prelabeled as described in FIG. 7, extracted in chloroform/methanol/1N HCl (200:100:1) and centrifuged at 1000 x g for 10 min. The supernatant was dried under N2 and resuspended in 1 mil of 50 mM ammonium bicarbonate, pH 7.4. These solutions were treated with 0.1 ug/ml PI-PLC from S. aureus for 30 min. at 37° C. Reactions were terminated by reextraction with 1 ml of chloroform/methanol/1N HCl (200:100:1) and aqueous and organic phases separated. The aqueous phases were then purified as described in FIG. 7 and chromatographed on SAX HPLC column, eluted as described.
FIG. 10--Thin Layer Chromatography of the Radiolabeled Precursor After PI-PLC Treatment. Cells were labeled, extracted, treated with or without PI-PLC and reextracted as described in FIG. 8. Organic phases were chromatographed on thin layer plates as detailed in FIG. 9.

The test system of series [2] is cAMP phosphodiesterase. Kind of series: Generation of an enzyme modulator from liver plasma membranes, cAMP phosphodiesterase readout. Format: biochemical, rat. On the procedure:
(§1) Purification of the Enzyme Modulator. Bovine liver particulate fraction was prepared as described previously [Saltiel A. R., (1984) "Preparation and Characterization of Putative Insulin Mediators from Liver", METHODS IN DIABETES […], eds. J. Larner, S. Pohl, I:73]. Solutions were incubated in 5 mM ammonium bicarbonate, pH 7.4 with 10 nM insulin or 1 ug/ml PI-PLC as described in the figure legends. Following incubation, solutions were acidified to pH 4.0 and centrifuged at 35,000 x g for 20 minutes. Resulting supernatants were extracted with chloroform/methanol (2:1). The upper aqueous phase was aspirated and methanol was evaporated. Enzyme modulating activities were purified as described in Publication No. 6 listed earlier herein. Briefly, the extract was chromatographed on DEAE-Cellulose and eluted with 0.25M triethylamine (TEA)-formate, pH 3.75. This was followed by chromatography on C-18 reversed phase resin, in the same buffer, followed by Dowex 50W X-4 in 50 mM TEA-formate, pH 3.0. The resulting eluate was lyophilized, resuspended in 50 mM TEA-formate, pH 4.5 and sequentially chromatographed on QAE-Sephadex, SAX HPLC and a P-2 gel filtration column. Only the cyclic inositol phosphate derivative residing in Peak I was examined.
(§2) Enzyme Assays. The low Km cAMP PDE was assayed in a rat adipocyte particulate fraction as previously described [Saltiel, A. R., Steigerwalt,R. W., (1986) "Purification of Putative Insulin-Sensitive cAMP Phosphodiesterase or its Catalytic Domain From Rat Adipocytes", DIABETES, 35:698] and as later modified in Publication No. 6. Activity was linear throughout 20 min. and proportional to protein concentration. Only the low Km species of the enzyme was present in this fraction. PDH activity was assayed in liver mitoplasts after preincubation with ATP as previously described [Saltiel et al., (1982) PROC. NATL. ACAD. SCI. U.S.A., 79:3513.]. Adenylate cyclase activity was also assayed in purified adipocyte plasma membranes. For all enzyme assays, variability was less than 5%.
(§3) Liver membranes were treated with or without 10 nM insulin or 1 ug/ml PI-PLC for 10 min. at 37° C. Following cetrifugation, the supernatants were extracted and purified up to and including the SAX HPLC step. Purified extracts were added to enzyme assays at a final dilution of 1:10. Enzyme activities were assayed with no additions or after addition of purified extracts from control, insulin or PIPPLC treated membrane. Percent of basal activity is expressed in parentheses. ^1 expressed as pmoles/mg protein-min. ^2 expressed as nmoles/mg protein-min.

The subject of a further series is Adenylate Cyclase. The experiment in a line: Generation of an enzyme modulator from liver plasma membranes, adenylate cyclase readout. It is filed as biochemical, rat. On the procedure: as §1, §2, §3
The test system of series [3] is cAMP phosphodiesterase. Kind of series: Generation of PDE messenger from liver membranes by insulin or PI-PLC; extracts assayed on cAMP phosphodiesterase. Format: biochemical, rat. The protocol:
These were generated from bovine liver particulate fractions by a modification of previously described methods. Particulate fraction was prepared from 100 g of bovine liver, and suspended in […] ammonium bicarbonate, pH 7.4. (Buffer A) at a final concentration of 2-4 mg protein/ml. This solution was incubated with […] for 10 min at 37° C., acidified to pH 4.0 with formic acid and sedimented at 45,000 g for 20 min. An equal volume of chloroform/methanol (2:1) was added to the supernatant, and the upper phase was aspirated and methanol was evaporated.
In the tests the results of which are tabulated above, liver membranes were treated as indicated for 10 min at 37° C., centrifuged and supernatants were extracted and purified up to and including the Dowex 50WX-4 step as described earlier herein under "Experimental Frocedures".
Partially purified extracts were assayed for ability to modulate cAMP phosphodiesterase. Basal activity was 56.2 pmoles/mg protein^-1 -min^-1.

A further series deals with Pyruvate Dehydrogenase. The experiment in a line: Generation of an enzyme modulator from liver plasma membranes, pyruvate dehydrogenase readout. Format: biochemical, rat. On the procedure: as §1, §2, §3
Where [4] appears, read: cells incubated with [3H]arachidonic acid.

For the molecule `OCCS` [2-mercaptoethanol], in the series with PI-glycan PLC (addition at 50 mM), the “% control” value was 190 % control and the “Activity (dpm/2 hr)” value came to 7564 dpm/2 hr.
For `O=C(O)CN(CCOCCOCCN(CC(=O)O)CC(=O)O)CC(=O)O` [EGTA], in the series on PI-glycan PLC (addition at 100 uM), the “% control” value worked out at 148 % control and the “Activity (dpm/2 hr)” value came to 5900 dpm/2 hr.
Consider `[Cl][Hg][Cl]` [HgCl2], for which, in the series on PI-glycan PLC (addition at 100 uM), the “% control” value is reported as 17 % control and the “Activity (dpm/2 hr)” value was 677 dpm/2 hr.
`CNC[C@H](O)c1ccc(O)c(O)c1` [epinephrine]: the “change in [3H]myristoyl diacylglycerol” value with BC3 Hl cells ([3H]myristate labeled cells) is on record as “no significant change”. Further, in the series on BC3 Hl cells (setting [4]), the “change in [3H]arachidonyl diacylglycerol” value is reported as “rapid increase” and the “time of maximal increase in [3H]arachidonyl diacylglycerol” value is 1 min.

B1: PI-PLC: purified phosphatidylinositol specific phospholipase C from S. aureus (protein, UniProt P45723 27-312, looked up)
1-phosphatidylinositol …: DGKHLTEINIPGSHDSGSFTLKDPVKSVWAKTQDKDYLTQMKSGVRFFDIRGRASADNMISVHHGMVYLHHELGKFLDDAKYYLSAYPNETIVMSMKKDYDSDSKVTKTFEEIFREYYYNNPQYQNLFYTGSNANPTLKETKGKIVLFNRMGGTYIKSGYGADTSGIQWADNATFETKINNGSLNLKVQDEYKDYYDKKVEAVKNLLAKAKTDSNKDNVYVNFLSVASGGSAFNSTYNYASHINPEIAKTIKANGKARTGWLIVDYAGYTWPGYDDIVSEIIDSNK
As to B1, in series [1], the “decrease in [3H]glucosamine labeling of the precursor spot” value was 40%, the “decrease in [3H]inositol labeling of the precursor spot” value is given as 60% and the “depletion of PI” value was 50%. The “cAMP Phosphodiesterase, percent of basal activity” value in the series on cAMP phosphodiesterase [2] (as E41) is 311.1%. Besides, the “cAMP Phosphodiesterase activity” value in the series on cAMP phosphodiesterase [2] (extract of liver membranes treated with 10 nM insulin or 1 ug/ml PI-PLC 10 min. 37° C., purified to SAX HPLC, dilution 1:10, no addition 61.7±4.2, control membranes 78.5±5.6) is 192±5 pmoles/mg protein-min. Besides, the “Adenylate Cyclase, percent of basal activity” value with Adenylate Cyclase (as E45) amounted to 25.0%. Besides, the “Adenylate Cyclase activity” value in the series on Adenylate Cyclase (extract as E41, no addition 272±14, control membranes 210±4) was 68.7±7.6 pmoles/mg protein-min. In addition, in the series with cAMP phosphodiesterase [3] (after partial purification, PI-PLC 1.0 ug/ml), the “stimulation/increase of production of PDE modulating activity from membranes” value came out at 6 fold. In the series with cAMP phosphodiesterase [3] (extract of liver membranes treated 10 min at 37° C. (1.0 nM Insulin, PI-PLC), purified up to Dowex 50WX-4, basal 56.2, untreated membranes 78.5), the “PDE Activity” value was 191.3 pmol mg protein^-1 min^-1. Further, the “Pyruvate Dehydrogenase, percent of basal activity” value with Pyruvate Dehydrogenase (as E43) came to 296.6%. In addition, the “Pyruvate Dehydrogenase activity” value with Pyruvate Dehydrogenase (extract as E41, no addition 1.77±0.07, control membranes 2.45±0.20) is 5.25±0.40 nmoles/mg protein-min.
